Experimental data reported in patent US20220133797A1.

biological target: CD19 (UniProt P15391); experiment: cell-based or functional assay

Row | Molecule | Average MFI Difference (MFI of ON - MFI of OFF) (BFP reporter; no CAR stimulation) | Average MFI Difference (MFI of ON - MFI of OFF) (BFP reporter; with CAR stimulation by ALPPL2+ K562) | Average Signal To Noise (BFP reporter MFI, CD19+ K562 vs K562; no CAR stimulation) | Average Signal To Noise (BFP reporter MFI, CD19+ K562 vs K562; with CAR stimulation by ALPPL2+ K562)
1 | hingeNotch STS variant with AGER STS (RRQRR) (receptor) | 1130 MFI | 1790 MFI | 11.9 | 106
2 | hingeNotch STS variant with CDH2 STS (…) (receptor) | 1130 MFI | 2830 MFI | 2.26 | 4.24
3 | hingeNotch STS variant with CSF1R STS (KYKQKPK) (receptor) | 801 MFI | 1510 MFI | 3.09 | 5.45
4 | hingeNotch STS variant with CXCL16 STS (KRRR) (receptor) | 1290 MFI | 1690 MFI | 14.4 | 27.9
5 | hingeNotch STS variant with DAG1 STS (RKKRKGK) (receptor) | 2520 MFI | 4640 MFI | 2.82 | 7.4
6 | hingeNotch STS variant with EPCAM STS (…) (receptor) | 864 MFI | 2370 MFI | 1.64 | 2.48
7 | hingeNotch STS variant with GHR STS (KQQRIK) (receptor) | 141 MFI | -51.5 MFI | 2.22 | 2.67
8 | hingeNotch STS variant with Jag2 STS (…) (receptor) | 1320 MFI | 3320 MFI | 5.09 | 21.4
9 | hingeNotch STS variant with KCNE3 STS (RSRKVDKR) (receptor) | 976 MFI | 1900 MFI | 9.78 | 62.5
10 | hingeNotch STS variant with KL STS (KKGRRSYK) (receptor) | 880 MFI | 1570 MFI | 3.72 | 6.53
11 | hingeNotch STS variant with LRP1B STS (…) (receptor) | 1010 MFI | 2560 MFI | 2.32 | 10.3
12 | hingeNotch STS variant with NRG1 STS (…) (receptor) | 806 MFI | 637 MFI | 9.42 | 25
13 | hingeNotch STS variant with Notch 2 STS (KRKRKH) (receptor) | 1260 MFI | 4190 MFI | 5.24 | 15.5
14 | hingeNotch STS variant with Notch 4 STS (RRRREH) (receptor) | 1020 MFI | 1480 MFI | 10.3 | 24.1
15 | hingeNotch STS variant with PTPRF STS (KRKRTH) (receptor) | 1180 MFI | 2570 MFI | 10.5 | 50.8

biological target: CD19 (UniProt P15391); experiment: cell-based or functional assay; remark: another data set of the same source

Row | Average MFI Difference (MFI of ON - MFI of OFF) (BFP reporter; no CAR stimulation) | Average MFI Difference (MFI of ON - MFI of OFF) (BFP reporter; with CAR stimulation by ALPPL2+ K562) | Average Signal To Noise (BFP reporter MFI, CD19+ K562 vs K562; no CAR stimulation) | Average Signal To Noise (BFP reporter MFI, CD19+ K562 vs K562; with CAR stimulation by ALPPL2+ K562) | Molecule
16 | 480 MFI | 423 MFI | 1.23 | 1.71 | HPLRKRRKRKKK (receptor, part only) [hingeNotch STS variant with BTC STS (…)]
17 | 1260 MFI | 2200 MFI | 8.32 | 15.8 | KTKKQRKQMHNHLR (receptor, part only) [hingeNotch STS variant with NRG2 STS (…)]
18 | 1290 MFI | 2270 MFI | 2.97 | 6.31 | RRRSKYSKAK (receptor, part only) [hingeNotch STS variant with EPHA3 STS (…)]
19 | 1190 MFI | 1990 MFI | 12.8 | 29.2 | RRKREH (receptor, part only) [hingeNotch STS variant with Notch3 STS (RRKREH)]
20 | 980 MFI | 2030 MFI | 2.41 | 4.78 | HRRCKHRTGK (receptor, part only) [hingeNotch STS variant with IL1R2 STS (…)]
